Source: the nanobody polyreactivity screen of Harvey et al. (2022)

Assay: yeast display, Sf9 membrane polyspecificity reagent, FACS + sequencing; frameworks hold sequencing errors
In short: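 Galactose induction of a Saccharomyces cerevisiae BJ5465 synthetic nanobody display library ran 36–48 hours. The cells were then stained for 1 hour at 4 °C with 10% biotinylated, detergent-solubilized Sf9 membrane reagent, pulled down on streptavidin microbeads and FACS-sorted into low and high (top ~1%) gates on expression and reagent-binding fluorescence. Labels for polyreactivity follow the gate of origin.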

| Sequence | polyreactivity (PSR sort gate) |
| --- | --- |
| QVQLVESGGGLVQAGGSLRLSCAASGRTFAINAMGWHRQAPGKERELVADITTDGSTYYADSVKGRFTISRDNAKNTVYLQMNSLKPEDTAVYYCATDSLDYFIRFKQFGYWGQGTQVTVSS | low polyreactivity |
| QVQLVESGGGLVQAGGSLRLSCAASGSIIVWNAMGWYRQAPGKERELVASITSGASTYYADSVKGRFTISRDNAKNTVYLQINSLKPEDTAVYYCAADPWYVAYLLDGYGMDYWGQGTLVTVSS | low polyreactivity |
| QVQLVESGGGLVQAGGSLRLSCAASGFIFACYAMAWYRQAPGKERELVATISSSGARTYYADSVKGRFTISRDNAKNTVYLQMNSLKPEDTAVYYCSAAGRYRPVSPYSGYNYWGQGTQVTVSS | high polyreactivity |
| QVQLVESGGGLVQAGGSLRLSCAASGFTFPWYAMGWDRQAPGKERELVASISYRGDSTYYADSVKGRFTFSRDNAKNTVYLQMNSLKPEDTAVYYCNKRLASYYLPGFDYWGQGTQVSVSS | low polyreactivity |
| QVQLVESGGGLVQAGGSLRLSCAASGFTLYYYTMGWYRQAPGKERELVAAITSGGDTYYADSVKGRFTISRDNAKNTVYLQMNSLKPEDTAVYYCAAVDDDYSIVWYDYWGQGTQVTVSS | low polyreactivity |
| QVQLVESGGGLVQAGGSLRLSCAASRRTSRYYAMGWYRQAPGKETEFVAAINFSGGRTYYADSVKGRFTISRDNAKNSVYLQMNSLKPEDTAVYYCATQDYRYRYSRFGYWGQGTLVTVSS | high polyreactivity |
| QVQLVESGGGIVQAGGSLRLSCAASGSILYFNAMGWYRQAPGKERELVAAISRTGSRTYYADSVKGRFTISRDNAKNTVYLQMNSLKPEDTAVYYCAAYNGITSHLRFDYWGQGTQVTVSS | high polyreactivity |
| QVQLVESGGGLVQAGGSLRLSCDASGLIFRPYARGWFRQAPGKERELVAAITSGGSTDYADSVKGRFTISRDNAKNTVYLLMNSLKPADTAVYYCNADIYPHDGYPWQGDYDYWGQGTQVTVSS | low polyreactivity |
| QVQLVESGGGLVQAGGSLRLSCAASGSTFYPNAMGWYRQAPGKERELVARISGRGGRTYYADSVKGRFTISRDNAKNTVYLLMNSLKPEDTAVYYCSKDPSSDLDYDYWGQGTQVTVSS | low polyreactivity |
| QVQLVESGGGLVQAGGSLRLSCAASGGIFRIYAMGWYRQAPGKERELVASISRSGGRTYYADSVKGRFTISRDNAKNTVYLQMNSLKPEDTAVYYCAVSLQGYNQVDYYYWGQGTQVTVSS | high polyreactivity |
| QVQHVESGGGLVQAGGSLRLTCAASGRIIAGYAMGWYRQATGKEREMVAAISSRGGSTYYADSVKGRFSISRDNAKNTVDLQMNSLKPVDTAVYYCAKRSWYSYVYGSGDYWGQGTQVTVSS | high polyreactivity |
| QVQLVESGGGLVQAAGSLRLSCATSGFTFVSNAMGRYRQPHGKQRELVAAITKRRSGSTYYADSVKGRFTISRDNAKNTVYLQMNSLKPEDTAVYYCDRVPDTDGEYWGQGTQVTVSS | high polyreactivity |
| QVQLVESGGGLVQAGGSLRLSCAASGRIFYPYAMGWYRQAPGKERELVAAITGRGGSTYYADSVKGRFTISRDNAKNTVYLQMNSLKPEDTAVYYCATVQSGRVRTYDYWGQGTQVTVSS | high polyreactivity |
| QVQLVESGGGLVQAGGSLRLSCAASGRIFSTYTMGWYRQAPGKERELVASISWSGVRTRYADSVKGRFTISRDNAQNTVYLQMNSLKPEDTAVYYCAAVVPYYYRSPSNHMGYWGQGTQVTVSS | high polyreactivity |
| QVQLVESGGGLVQAGGSLRLSCAASGRIFGVNAMGWYRQAPGKERELVADISSGGSTYYADSVKGRFTISRDNAKNTVYLQMNSLKPEDTAVYYCAKAPRGRGLYDYWGQGTQVTVSS | low polyreactivity |
| QVQLVESGGGLVQAGGSLRLSCAASGFTITYNAMGWYRKAPGKEREFVAAITNNGSTYYADSVKGRFTISRDNAKNTVYLQMNSLKPEDTAVYYCAVDPGYYDEYKYWGQGTQVTVSS | low polyreactivity |

| Sequence | polyreactivity (PSR sort gate) |
| --- | --- |
| QVQLVESGGGLVQAGGSLRLSCAASGFTFGSNTMGWYRQAPRKERELVAAITGRGGSTYYADSVKGRFTSSRDNAKNTVYLQMTSLKPEDTAVYYCAARTYPTGASFDYWGQGTQVTVSS | high polyreactivity |
| QVQLVESAGGLVQEGGSLRLSCAASGRIFGPYALGWYRQAPGKERELVAAISFSGSGTYYAASVKGRFTISRDNANNTVYLQIYSLKPEDNAVYYCAADGVYIDSNNRNTSDYWGQGTQVTVSS | low polyreactivity |
| QVQLVESGGGLVQAGGSLRLSCAASGFTFRDYAMGWYRQAPGKERELVAAISFSGGRTFYADSVKGRFTISRDNAKNTVYLQMNSLKPEDTAVYYCNAQYLTYRYYPRRNLDYWGQGTQVTVSS | high polyreactivity |
| QVQHVESGGGLVQAGVSLRLSCAASGLTFTRYAMGWDRQAPGKERELVAAISWSGGSTYYADSVKGRFTISRDNAKNTVYLQMNSLKPEDTAVYYCAAEPYKQYTGYYYSGFEFWGQGTQVTVSS | high polyreactivity |
| QVQLVESGGGLVQAGGSLRLSCAASGIIFNWYAMGWYRQAPGKERELVAGISTSGGSTYYADSVKGRFTISRDNAKNTVYLQMNSLKPEDTAVYYCAARSRRYYGYDYWGQGTQVTVSS | high polyreactivity |
| QVQLVESGGGLVQAGGSLRLSCAASGSIFYFNAMGWYRRAPGKERELVAGISARGGSTYYADSVKGRFTISRDHAKNTVYIQMNSLKPEDTAGYYCAAYGTTRSRKRAFAWWGYDYWGQGTQVTVSS | low polyreactivity |
| QVQLVESGGGLVQAGGSLRLSCAPSGFIFGSYAMGWYTQAPGKERELVAAISRSGGRTYYADSVKGRFTISRDNAKNTVYLQMNSLKPEDSAVYYCAAVHLLVYPTYDSWGQGTQVTVSS | high polyreactivity |
| QVQLVESGGGLVQAGGSLRLSCAASGLIFPRNAMGWYRQAPGKERELVAAITSGGGTNYADSVKWRFTISRDNAKNTVYLQMNSLIPEDTAVYYCAADYSVASPDGPYVIYDYWGQGTQVTVSS | low polyreactivity |
| QVQLVESGGGIVQAGRSLRLSCAASGRTFYYYVMGWYRQAPGKERELVAAISRGGRTYYADSVKGRFTISRDNAKNTVYLQMNSLKPEDTAVYYCNAVPRKSRHRYDYWGQGSQVTVSS | high polyreactivity |
| QVQLVESAGGLVQAGGSLRLSCADSGSTFSPYAMGWYIDAPGKERELVAAIRSGRTSYADSVKGRFTISRDNAKNTVYLQMNSLKPEDTAVYYCAKASRVGYYWGQGTQVTESS | high polyreactivity |
| QFQLVESGGGLVQAGGILRLSCAASGSTFCVYAMGWYRQAPGKERELVATINSGGSTNYADSVKGRFTISRDNAKNTVYLQMNSLKPEDTAVYYCAAGPFWQDFYVYEYDYWGQGTQVTVSS | low polyreactivity |
| QVQLVESGGGLVQAGGSLRLSCAASGSTFWIYAMGWYRQAPGKERELVAAITLRSGSTYYADSVKGRFTISRDNAKNTVYLQMNSLKPEDTSVYYCATDSWGVDRPNYNYWGQGTQVTVSS | low polyreactivity |
| QVQLVESGGGLVQAGGSLRLSCAASGRIFGVYVMGWYRQAPGKETELVAAISWSGSHTYYADSVKGRFTISRDNAKNTVYLQMNSLKPEDTAVYYCNADSYPDYTGPGLDWYDYWGQGTQVTVSS | low polyreactivity |
| QVQLVESGGGLVQAGGSLRLSCAASGSIFGVYAMGWYRQAPGKEREFVAAITKRGGSTYYADSVKGRFTISRDNAKNTVYLQMNSLKPEDTAVYYCAARYGRYISSRYGSWGQGTQVTVSS | high polyreactivity |
| QVQLVESGGGLVQAGGSLRLSCAASGSIFVQNRMGWYRQAPGKERELVAAITFSGVDTYYADSVKGRFTISRDNAKNTVYLQMNSLKPEDTAVYYCAARVQHYLSTDDYWGQGTQVTVSS | low polyreactivity |
